{
  "source": "patent US20090136527A1",
  "binders": {"B1": {"name": "GnRH II ([His5, Trp7, Tyr8]GnRH) (peptide)", "peptide": "[pGlu]HWSHGWYPG-NH2", "SMILES": "NC(=O)CNC(=O)[C@@H]1CCCN1C(=O)[C@H](Cc1ccc(O)cc1)NC(=O)[C@H](Cc1c[nH]c2ccccc12)NC(=O)CNC(=O)[C@H](Cc1c[nH]cn1)NC(=O)[C@H](CO)NC(=O)[C@H](Cc1c[nH]c2ccccc12)NC(=O)[C@H](Cc1c[nH]cn1)NC(=O)[C@@H]1CCC(=O)N1"}},
  "key": {"[1]": {"target": "affinity purified rabbit anti-RI-GnRH antibody fraction eluted with potassium thiocyanate, first fraction (KSCN 1)", "assay": "inhibition ELISA: antibody fraction preincubated with free peptide, binding to coated RI-GnRH"}, "[2]": {"target": "T1, human GnRH receptor (human) (UniProt P30968)", "T1 sequence (looked up)": "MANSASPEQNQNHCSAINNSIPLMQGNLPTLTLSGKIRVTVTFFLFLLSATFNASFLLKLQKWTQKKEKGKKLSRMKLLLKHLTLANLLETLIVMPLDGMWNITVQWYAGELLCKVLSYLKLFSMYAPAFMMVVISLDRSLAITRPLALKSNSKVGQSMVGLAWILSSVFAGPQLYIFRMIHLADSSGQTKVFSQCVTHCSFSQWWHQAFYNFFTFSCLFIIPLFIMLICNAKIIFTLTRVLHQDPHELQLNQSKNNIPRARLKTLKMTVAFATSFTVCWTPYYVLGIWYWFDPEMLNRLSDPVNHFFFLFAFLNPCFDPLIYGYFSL", "assay": "cell-based or functional assay"}},
  "note": "Non-standard residues stand in square brackets, D forms with d. pGlu = O=C1CC[C@@H](C(=O)O)N1",
  "data": [
    {"binder": "EHWSYGLQPG (pGlu (pyroglutamate) at position 1; C-terminal amide)", "note": "[chicken GnRH I ([Gln8]GnRH)]", "values": [
      {"measurement": "IC50 (read off the curve)", "setting": "[1]", "value": 100, "unit": "nM"},
      {"measurement": "half-maximal effective concentration (EC50) of IP production", "setting": "[2]", "value": 1, "unit": "nM"}
    ]},
    {"binder": "B1", "values": [
      {"measurement": "half-maximal effective concentration (EC50) of IP production", "setting": "[2]", "value": 1, "unit": "nM"}
    ]}
  ]
}
